Experiment [1] deals with T1, IL-13Rα2 on human A375 and U87 cells (human, UniProt Q14627 27-380).
T1 sequence (looked up): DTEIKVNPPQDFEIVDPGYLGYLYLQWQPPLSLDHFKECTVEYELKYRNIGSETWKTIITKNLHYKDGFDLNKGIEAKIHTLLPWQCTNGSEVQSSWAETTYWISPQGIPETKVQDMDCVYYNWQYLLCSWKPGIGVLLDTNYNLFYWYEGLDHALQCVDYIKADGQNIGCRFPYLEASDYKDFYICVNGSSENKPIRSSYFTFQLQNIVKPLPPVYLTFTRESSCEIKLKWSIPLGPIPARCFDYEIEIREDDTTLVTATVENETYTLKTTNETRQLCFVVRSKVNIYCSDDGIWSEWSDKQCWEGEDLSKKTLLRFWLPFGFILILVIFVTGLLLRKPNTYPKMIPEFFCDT
In words: cell-based or functional assay.

Experiment [2] deals with IL-13Rα2 on engineered EMT6 cells (EMT6-IL13Rα2). Kind of experiment: cell-based or functional assay.
Experiment [3] addresses T1, IL-13Rα2 on human A375 and U87 cells. Kind of experiment: cell-based or functional assay. This is another data set of the same source.
Experiment [4] has as its target IL-13Rα2 on engineered EMT6 cells (EMT6-IL13Rα2). Kind of experiment: cell-based or functional assay. This is another data set of the same source.
The target in another experiment is T2, Fc-IL13 (1:1 KIH) (human, UniProt P35225 34-146).
T2 construct: also called Fc-IL13 KIH
Kind of experiment: SPR. On the procedure: Receptor binding was assessed using surface plasmon resonance (SPR) in which test constructs (i.e., Fc-MDNA132) were bound onto SPR chip surface and receptors (i.e., IL-13Rα1 and IL-13Rα2) were used as flow analytes (data not shown).
Representative SPR sensorgrams of Fc-MDNA132 and Fc-51.13 binding to […] and IL-13Rα2 is shown in (data not shown) and KD values are tabulated in Table 12. Variants contain the 5 core mutations of MDNA132 and an added mutation at amino acid position indicated in the name of the constructs.
Background: SPR reads the build-up and loss of mass on a sensor chip optically.

B1: MDNA132.15-PE (other)
chain: GPGPVPPSTAHRELIRELVNITQNQKAPLCNGSMVWSINLTAGMYCAALESLINVSGCSAIEKTQRMLSGFCPHKVSAGQFSSLHVTGRKIEVAQFVKDLLLHLKKLFKEGQFNASGGPEGGSLAALTAHQACHLPLETFTRHRQPRGWEQLEQCGYPVQRLVALYLAARLSWNQVDQVIRNALASPGSGGDLGEAIREQPEQARLALTLAAAESERFVRQGTGNDEAGAANGPADSGDALLERNYPTGAEFLGDGGDVSFSTRGTQNWTVERLLQAHRQLEERGYVFVGYHGTFLEAAQSIVFGGVRARSQDLDAIWRGFYIAGDPALAYGYAQDQEPDARGRIRNGALLRVYVPRSSLPGFYRTSLTLAAPEAAGEVERLIGHPLPLRLDAITGPEEEGGRLETILGWPLAERTVVIPSAIPTDPRNVGGDLDPSSIPDKEQAISALPDYASQPGKPPKDEL
Take B1: in experiment [1], the “IC50 (pM), cytotoxicity assay, A375 cells, 72 h incubation” value is 1.1 pM and the “IC50 (pM), cytotoxicity assay, U87 cells, 72 h incubation” value was 208 pM. In experiment [2], the “IC50 (pM), cytotoxicity assay, EMT6-IL13Rα2 cells, 72 h incubation” value is 1.13 pM. Moreover, in experiment [3], the “IC50 (pM), cytotoxicity assay, A375 cells, 48 h incubation” value was determined as 1.02 pM and the “IC50 (pM), cytotoxicity assay, U87 cells, 48 h incubation” value is 11.4 pM. Moreover, the “IC50 (pM), cytotoxicity assay, EMT6-IL13Rα2 cells, 48 h incubation” value in experiment [4] stood at 2.1 pM.

B2: human IL-13Rα1 (receptor, UniProt P78552 22-343, looked up)
chain: GGGGAAPTETQPPVTNLSVSVENLCTVIWTWNPPEGASSNCSLWYFSHFGDKQDKKIAPETRRSIEVPLNERICLQVGSQCSTNESEKPSILVEKCISPPEGDPESAVTELQCIWHNLSYMKCSWLPGRNTSPDTNYTLYYWHRSLEKIHQCENIFREGQYFGCSFDLTKVKDSSFEQHSVQIMVKDNAGKIKPSFNIVPLTSRVKPDPPHIKNLSFHNDDLYVQWENPQNFISRCLFYEVEVNNSQTETHNVFYVQEAKCENPEFERNVENTSCFMVPGVLPDTLNTVRIRVKTNKLCYEDDKLWSNWSQEMSIGKKRNST
notes: also called IL-13αR1
The Kd is the constant that tells how readily two partners part at equilibrium. As for B2, the Kd in the experiment with Fc-IL13 (1:1 KIH) turned out to be 470 nM.

B3: human IL-13Rα2 (receptor, UniProt Q14627 27-343, looked up)
chain: DTEIKVNPPQDFEIVDPGYLGYLYLQWQPPLSLDHFKECTVEYELKYRNIGSETWKTIITKNLHYKDGFDLNKGIEAKIHTLLPWQCTNGSEVQSSWAETTYWISPQGIPETKVQDMDCVYYNWQYLLCSWKPGIGVLLDTNYNLFYWYEGLDHALQCVDYIKADGQNIGCRFPYLEASDYKDFYICVNGSSENKPIRSSYFTFQLQNIVKPLPPVYLTFTRESSCEIKLKWSIPLGPIPARCFDYEIEIREDDTTLVTATVENETYTLKTTNETRQLCFVVRSKVNIYCSDDGIWSEWSDKQCWEGEDLSKKTLLR
notes: also called IL-13Ra2; human IL-13 decoy receptor
B3: in the experiment with Fc-IL13 (1:1 KIH), the Kd was determined as 0.15 nM.

B4: cpMDNA132.15-PE (other)
chain: MTAGMYCAALESLINVSGCSAIEKTQRMLSGFCPHKVSAGQFSSLHVTGRKIEVAQFVKDLLLHLKKLFKEGQFNGGNGGPGPVPPSTAHRELIRELVNITQNQKAPLCNGSMVWSINLASGGPEGGSLAALTAHQACHLPLETFTRHRQPRGWEQLEQCGYPVQRLVALYLAARLSWNQVDQVIRNALASPGSGGDLGEAIREQPEQARLALTLAAAESERFVRQGTGNDEAGAANGPADSGDALLERNYPTGAEFLGDGGDVSFSTRGTQNWTVERLLQAHRQLEERGYVFVGYHGTFLEAAQSIVFGGVRARSQDLDAIWRGFYIAGDPALAYGYAQDQEPDARGRIRNGALLRVYVPRSSLPGFYRTSLTLAAPEAAGEVERLIGHPLPLRLDAITGPEEEGGRLETILGWPLAERTVVIPSAIPTDPRNVGGDLDPSSIPDKEQAISALPDYASQPGKPPKDEL
On to B4, for which, in experiment [1], the “IC50 (pM), cytotoxicity assay, A375 cells, 72 h incubation” value came out at 1.3 pM and the “IC50 (pM), cytotoxicity assay, U87 cells, 72 h incubation” value was 7.6 pM. The “IC50 (pM), cytotoxicity assay, EMT6-IL13Rα2 cells, 72 h incubation” value in experiment [2] was determined as 1 pM. Besides, in experiment [3], the “IC50 (pM), cytotoxicity assay, A375 cells, 48 h incubation” value was found to be 1.5 pM and the “IC50 (pM), cytotoxicity assay, U87 cells, 48 h incubation” value amounted to 4.2 pM. Further, the “IC50 (pM), cytotoxicity assay, EMT6-IL13Rα2 cells, 48 h incubation” value in experiment [4] amounted to 1 pM.

These data come from patent US20260232820A1 (MEDICENNA THERAPEUTICS, published 2026).
